According to patent publication US20100003232:

Key:
[1] = molecular target: Aβ produced naturally by APPswe.3 cells (secreted Aβ in conditioned medium) (UniProt P05067)
Human insulin = Human insulin (UniProt P01308)
amyloid-β peptide (1-42) = amyloid-β peptide (1-42) (UniProt P05067)
[2] = molecular target: secreted ectodomain of the amyloid precursor protein derivative generated by α-secretase (APPsα) (UniProt P05067)
β-Amyloid (1-40) = β-Amyloid (1-40) (UniProt P05067)

Sequence of UniProt P01308 (P01308 whole entry, looked up): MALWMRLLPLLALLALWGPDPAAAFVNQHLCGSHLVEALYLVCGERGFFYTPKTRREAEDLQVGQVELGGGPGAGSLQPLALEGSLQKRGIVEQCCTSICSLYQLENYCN

IDE D426C/K899C double cysteine mutant
t½ for the degradation of secreted Aβ [1]: that by the IDE D426C/K899C mutant was 2 minutes | degradation followed by MALDI-TOF (Human insulin): all three double cysteine IDE mutants degraded both insulin and Aβ(1-42) more effectively than wild-type IDE | degradation followed by MALDI-TOF (amyloid-β peptide (1-42)): all three double cysteine IDE mutants degraded both insulin and Aβ(1-42) more effectively than wild-type IDE | degradation in conditioned medium (Western blot) [2]: IDE had no effect on the secreted ectodomain of the amyloid precursor protein derivative generated by α-secretase (APPsα) | Hill coefficient (β-Amyloid (1-40)): 2.3 | Kcat (β-Amyloid (1-40)): 20 s⁻¹

wild type human insulin-degrading enzyme (IDE)
t½ for the degradation of secreted Aβ [1]: The estimated t½ for the degradation of secreted Aβ by wild-type IDE was 11 minutes | degradation in conditioned medium (Western blot) [2]: IDE had no effect on the secreted ectodomain of the amyloid precursor protein derivative generated by α-secretase (APPsα) | Hill coefficient (β-Amyloid (1-40)): 2.9 | Kcat (β-Amyloid (1-40)): 8 s⁻¹ | Km (β-Amyloid (1-40)): 25 µM
